Measurements taken from patent publication US20100028993A1.
Values belong to the molecule of their own block, whether it stands above or below them. Square brackets hold non-standard residues; d marks the D form. Ends that are not written are not given here. Hyp = O=C(O)[C@@H]1C[C@@H](O)CN1

Legend:
[1] = target: growth hormone receptor (GHR) on GHR-expressing NIH 3T3-L1 cells (Mus musculus (Mouse)) (UniProt P16882); assay: radioreceptor competition assay; displacement of [125I]-hGH from monolayers of GHR-expressing NIH 3T3-L1 cells
Sequence of UniProt P16882 (P16882 25-650 limits assumed, form in doubt): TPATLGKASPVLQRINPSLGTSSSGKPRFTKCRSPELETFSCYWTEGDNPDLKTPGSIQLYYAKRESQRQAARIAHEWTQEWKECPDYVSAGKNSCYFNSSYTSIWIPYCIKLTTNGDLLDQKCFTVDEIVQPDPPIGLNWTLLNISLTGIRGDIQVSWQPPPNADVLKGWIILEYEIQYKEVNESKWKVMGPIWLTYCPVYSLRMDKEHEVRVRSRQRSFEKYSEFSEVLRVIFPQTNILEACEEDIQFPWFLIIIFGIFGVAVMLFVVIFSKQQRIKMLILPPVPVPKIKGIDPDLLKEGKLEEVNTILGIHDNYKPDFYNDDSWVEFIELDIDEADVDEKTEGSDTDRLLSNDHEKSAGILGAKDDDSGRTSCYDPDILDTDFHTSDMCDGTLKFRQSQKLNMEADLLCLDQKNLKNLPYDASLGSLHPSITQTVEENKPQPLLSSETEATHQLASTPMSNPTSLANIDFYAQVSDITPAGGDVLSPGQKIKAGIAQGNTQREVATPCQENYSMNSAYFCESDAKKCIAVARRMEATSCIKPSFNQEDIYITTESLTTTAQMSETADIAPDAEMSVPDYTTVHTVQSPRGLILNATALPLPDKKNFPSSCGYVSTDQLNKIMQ

[2] = target: anti-hGH-(SO)10 antibodies (1:10,000 serum dilution); assay: competition ELISA; hGH-(SO)10-coated plates, anti-hGH-(SO)10 serum 1:10,000, 100 ug/ml (SO)10 as competitive inhibitor

EC50 [1]: 10 nM
Molecule: hGH-(SP)10-EGFP fusion glycoprotein (ligand)

percent inhibition [2]: 5%
B1: purified (SP)10 / (SO)10 glycomodule (peptide)
peptide: S[Hyp]S[Hyp]S[Hyp]S[Hyp]S[Hyp]S[Hyp]S[Hyp]S[Hyp]S[Hyp]S[Hyp]
modifications: not fully specified
